T1: FcγRIIa R extracellular domain with C-terminal His tag (human, UniProt P12318 34-217)
T1 construct: extracellular domain; also called FcgRIIa R; 2aR; not shown: His tag at the C terminus
T1 sequence (looked up): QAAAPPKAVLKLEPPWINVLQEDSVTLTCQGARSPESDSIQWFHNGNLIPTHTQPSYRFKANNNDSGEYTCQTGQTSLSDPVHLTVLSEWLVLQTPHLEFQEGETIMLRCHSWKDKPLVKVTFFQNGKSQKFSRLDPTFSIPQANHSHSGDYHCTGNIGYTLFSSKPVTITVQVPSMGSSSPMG

B1: GpH7-B3 variant P331_20W/GpL16-k0 (antibody, human IgG1, kappa)
heavy: not shown
light: DIVMTQSPLSLPVTPGEPASISCQASESLVHSNRNTYLHWYLQKPGQSPQLLIYKVSNRFSGVPDRFSGSGSGTDFTLKISRVEAEDVGVYYCSQNTHVPPTFGQGTKVEIERTVAAPSVFIFPPSDEQLKSGTASVVCLLNNFYPREAKVQWKVDNALQSGNSQESVTEQDSKDSTYSLSSTLTLSKADYEKHKVYACEVTHQGLSSPVTKSFNRGEC
notes: homodimerized: alteration in both H chains; also called Ho Ab P331_20W
B2: GpH7-B3 variant S239_10E/GpL16-k0 (antibody, human IgG1, kappa)
heavy: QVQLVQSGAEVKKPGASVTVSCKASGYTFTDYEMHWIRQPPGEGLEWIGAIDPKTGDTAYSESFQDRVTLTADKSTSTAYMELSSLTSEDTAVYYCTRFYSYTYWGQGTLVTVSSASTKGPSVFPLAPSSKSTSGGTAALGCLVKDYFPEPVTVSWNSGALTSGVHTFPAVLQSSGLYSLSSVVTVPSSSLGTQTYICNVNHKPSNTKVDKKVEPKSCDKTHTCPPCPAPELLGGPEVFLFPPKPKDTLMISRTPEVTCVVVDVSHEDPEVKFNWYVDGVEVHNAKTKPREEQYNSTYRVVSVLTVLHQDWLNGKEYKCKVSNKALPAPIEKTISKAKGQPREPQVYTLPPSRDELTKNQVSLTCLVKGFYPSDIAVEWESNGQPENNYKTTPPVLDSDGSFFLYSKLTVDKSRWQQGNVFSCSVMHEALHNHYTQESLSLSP
light: B1 light
notes: homodimerized: alteration in both H chains; also called Ho Ab S239_10E
B3: GpH7-B3 variant S337_06M/GpL16-k0 (antibody, human IgG1, kappa)
heavy: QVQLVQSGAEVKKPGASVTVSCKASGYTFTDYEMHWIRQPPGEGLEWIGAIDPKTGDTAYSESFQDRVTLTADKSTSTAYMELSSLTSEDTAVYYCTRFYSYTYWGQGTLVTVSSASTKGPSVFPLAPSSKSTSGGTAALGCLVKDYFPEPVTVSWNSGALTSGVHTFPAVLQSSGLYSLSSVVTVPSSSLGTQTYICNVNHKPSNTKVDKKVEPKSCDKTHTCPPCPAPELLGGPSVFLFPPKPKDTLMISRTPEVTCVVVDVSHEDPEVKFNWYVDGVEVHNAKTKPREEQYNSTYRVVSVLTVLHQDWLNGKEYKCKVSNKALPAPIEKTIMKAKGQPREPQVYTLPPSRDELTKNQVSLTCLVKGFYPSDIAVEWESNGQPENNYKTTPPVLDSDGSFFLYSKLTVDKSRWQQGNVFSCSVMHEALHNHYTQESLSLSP
light: B1 light
notes: homodimerized: alteration in both H chains; also called Ho Ab S337_06M
B4: GpH7-B3 variant S337_18N/GpL16-k0 (antibody, human IgG1, kappa)
heavy: not shown
light: B1 light
notes: homodimerized: alteration in both H chains; also called Ho Ab S337_18N
B5: GpH7-B3 variant S337_15Y/GpL16-k0 (antibody, human IgG1, kappa)
heavy: not shown
light: B1 light
notes: homodimerized: alteration in both H chains; also called Ho Ab S337_15Y
B6: GpH7-B3 variant S337_09D/GpL16-k0 (antibody, human IgG1, kappa)
heavy: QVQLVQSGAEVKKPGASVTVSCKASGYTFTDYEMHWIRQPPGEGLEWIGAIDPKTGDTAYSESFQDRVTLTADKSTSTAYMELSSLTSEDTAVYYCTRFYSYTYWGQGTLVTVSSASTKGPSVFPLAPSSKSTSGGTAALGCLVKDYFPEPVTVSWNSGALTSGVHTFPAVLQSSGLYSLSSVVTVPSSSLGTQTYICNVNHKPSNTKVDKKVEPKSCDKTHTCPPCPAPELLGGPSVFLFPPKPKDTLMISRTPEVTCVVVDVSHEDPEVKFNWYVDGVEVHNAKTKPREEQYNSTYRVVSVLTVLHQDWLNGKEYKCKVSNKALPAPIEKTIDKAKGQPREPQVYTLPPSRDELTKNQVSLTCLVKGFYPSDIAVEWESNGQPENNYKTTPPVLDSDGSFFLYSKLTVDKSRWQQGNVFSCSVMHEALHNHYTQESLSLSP
light: B1 light
notes: homodimerized: alteration in both H chains; also called Ho Ab S337_09D
B7: GpH7-B3 variant S298_08L/GpL16-k0 (antibody, human IgG1, kappa)
heavy: not shown
light: B1 light
notes: homodimerized: alteration in both H chains; also called Ho Ab S298_08L
B8: GpH7-B3 variant S267_09D/GpL16-k0 (antibody, human IgG1, kappa)
heavy: not shown
light: B1 light
notes: homodimerized: alteration in both H chains; also called Ho Ab S267_09D
B9: GpH7-B3 variant T335_13S/GpL16-k0 (antibody, human IgG1, kappa)
heavy: not shown
light: B1 light
notes: homodimerized: alteration in both H chains; also called Ho Ab T335_13S
B10: GpH7-B3 variant S324_06M/GpL16-k0 (antibody, human IgG1, kappa)
heavy: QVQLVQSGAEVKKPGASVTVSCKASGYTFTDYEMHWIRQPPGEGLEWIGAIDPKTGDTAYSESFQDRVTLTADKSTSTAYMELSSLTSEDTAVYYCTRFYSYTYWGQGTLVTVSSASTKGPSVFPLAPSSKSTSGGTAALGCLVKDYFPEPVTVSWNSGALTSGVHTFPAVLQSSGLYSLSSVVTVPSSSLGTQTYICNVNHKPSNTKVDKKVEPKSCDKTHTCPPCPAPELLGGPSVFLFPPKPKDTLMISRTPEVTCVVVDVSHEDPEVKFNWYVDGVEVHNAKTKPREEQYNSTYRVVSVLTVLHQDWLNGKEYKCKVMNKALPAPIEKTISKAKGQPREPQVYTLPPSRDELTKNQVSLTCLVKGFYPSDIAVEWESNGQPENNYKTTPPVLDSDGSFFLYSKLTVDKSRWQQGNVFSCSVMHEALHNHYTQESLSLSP
light: B1 light
notes: homodimerized: alteration in both H chains; also called Ho Ab S324_06M
B11: GpH7-B3 variant S337_20W/GpL16-k0 (antibody, human IgG1, kappa)
heavy: not shown
light: B1 light
notes: homodimerized: alteration in both H chains; also called Ho Ab S337_20W
B12: GpH7-B3 variant T335_02A/GpL16-k0 (antibody, human IgG1, kappa)
heavy: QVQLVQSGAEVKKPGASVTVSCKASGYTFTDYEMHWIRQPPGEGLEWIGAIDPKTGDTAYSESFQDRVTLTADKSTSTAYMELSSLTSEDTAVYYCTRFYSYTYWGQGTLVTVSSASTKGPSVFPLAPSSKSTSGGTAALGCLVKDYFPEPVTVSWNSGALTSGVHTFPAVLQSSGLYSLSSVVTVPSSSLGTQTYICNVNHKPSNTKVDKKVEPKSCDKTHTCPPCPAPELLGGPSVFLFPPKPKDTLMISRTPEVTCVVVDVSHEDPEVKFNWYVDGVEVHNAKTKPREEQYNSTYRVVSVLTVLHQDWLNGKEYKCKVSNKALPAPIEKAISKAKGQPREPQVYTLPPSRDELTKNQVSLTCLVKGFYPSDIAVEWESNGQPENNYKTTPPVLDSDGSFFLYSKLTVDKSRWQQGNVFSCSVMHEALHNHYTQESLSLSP
light: B1 light
notes: homodimerized: alteration in both H chains; also called Ho Ab T335_02A
B13: GpH7-B3 variant S267_03V/GpL16-k0 (antibody, human IgG1, kappa)
heavy: not shown
light: B1 light
notes: homodimerized: alteration in both H chains; also called Ho Ab S267_03V
B14: GpH7-B3 variant S267_19Q/GpL16-k0 (antibody, human IgG1, kappa)
heavy: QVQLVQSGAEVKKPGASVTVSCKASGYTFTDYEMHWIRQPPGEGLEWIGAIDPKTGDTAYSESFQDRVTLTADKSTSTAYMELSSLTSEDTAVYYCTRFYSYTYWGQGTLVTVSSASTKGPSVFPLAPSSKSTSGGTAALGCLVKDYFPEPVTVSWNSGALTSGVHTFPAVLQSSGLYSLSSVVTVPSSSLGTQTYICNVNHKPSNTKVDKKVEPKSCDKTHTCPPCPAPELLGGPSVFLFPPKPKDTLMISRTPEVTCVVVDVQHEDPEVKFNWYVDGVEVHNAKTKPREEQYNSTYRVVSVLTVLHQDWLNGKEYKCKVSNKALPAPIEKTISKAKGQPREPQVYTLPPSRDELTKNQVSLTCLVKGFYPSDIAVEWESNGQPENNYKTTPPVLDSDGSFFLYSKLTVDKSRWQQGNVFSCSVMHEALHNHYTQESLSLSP
light: B1 light
notes: homodimerized: alteration in both H chains; also called Ho Ab S267_19Q
B15: GpH7-B3 variant S337_10E/GpL16-k0 (antibody, human IgG1, kappa)
heavy: not shown
light: B1 light
notes: homodimerized: alteration in both H chains; also called Ho Ab S337_10E
B16: GpH7-B3 variant T335_07I/GpL16-k0 (antibody, human IgG1, kappa)
heavy: not shown
light: B1 light
notes: homodimerized: alteration in both H chains; also called Ho Ab T335_07I
B17: GpH7-B3 variant T335_05P/GpL16-k0 (antibody, human IgG1, kappa)
heavy: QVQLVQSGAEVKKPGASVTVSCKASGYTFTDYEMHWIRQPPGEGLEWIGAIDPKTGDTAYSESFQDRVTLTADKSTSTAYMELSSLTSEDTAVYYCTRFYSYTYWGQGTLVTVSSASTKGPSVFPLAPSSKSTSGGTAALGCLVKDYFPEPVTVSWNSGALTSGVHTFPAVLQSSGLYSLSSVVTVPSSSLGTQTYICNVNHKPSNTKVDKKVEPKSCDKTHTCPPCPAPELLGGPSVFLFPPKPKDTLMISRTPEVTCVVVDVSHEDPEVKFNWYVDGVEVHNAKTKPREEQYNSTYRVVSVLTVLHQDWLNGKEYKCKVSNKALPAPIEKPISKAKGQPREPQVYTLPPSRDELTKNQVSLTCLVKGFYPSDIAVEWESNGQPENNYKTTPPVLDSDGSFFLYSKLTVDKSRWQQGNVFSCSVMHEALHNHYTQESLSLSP
light: B1 light
notes: homodimerized: alteration in both H chains; also called Ho Ab T335_05P
B18: GpH7-B3 variant S337_19Q/GpL16-k0 (antibody, human IgG1, kappa)
heavy: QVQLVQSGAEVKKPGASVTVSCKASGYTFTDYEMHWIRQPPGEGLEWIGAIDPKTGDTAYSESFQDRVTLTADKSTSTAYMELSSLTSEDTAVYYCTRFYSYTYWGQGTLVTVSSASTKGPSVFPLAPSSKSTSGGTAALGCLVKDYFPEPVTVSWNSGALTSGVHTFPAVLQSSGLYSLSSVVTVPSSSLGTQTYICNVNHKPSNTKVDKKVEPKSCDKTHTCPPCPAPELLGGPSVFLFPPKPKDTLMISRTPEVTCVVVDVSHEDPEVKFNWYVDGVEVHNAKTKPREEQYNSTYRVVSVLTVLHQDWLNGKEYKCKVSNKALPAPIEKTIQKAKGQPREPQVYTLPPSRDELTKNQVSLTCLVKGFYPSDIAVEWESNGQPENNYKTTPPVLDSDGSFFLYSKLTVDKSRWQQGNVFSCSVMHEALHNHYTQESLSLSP
light: B1 light
notes: homodimerized: alteration in both H chains; also called Ho Ab S337_19Q
B19: GpH7-B3 variant S239_08L/GpL16-k0 (antibody, human IgG1, kappa)
heavy: not shown
light: B1 light
notes: homodimerized: alteration in both H chains; also called Ho Ab S239_08L
B20: GpH7-B3 variant S267_06M/GpL16-k0 (antibody, human IgG1, kappa)
heavy: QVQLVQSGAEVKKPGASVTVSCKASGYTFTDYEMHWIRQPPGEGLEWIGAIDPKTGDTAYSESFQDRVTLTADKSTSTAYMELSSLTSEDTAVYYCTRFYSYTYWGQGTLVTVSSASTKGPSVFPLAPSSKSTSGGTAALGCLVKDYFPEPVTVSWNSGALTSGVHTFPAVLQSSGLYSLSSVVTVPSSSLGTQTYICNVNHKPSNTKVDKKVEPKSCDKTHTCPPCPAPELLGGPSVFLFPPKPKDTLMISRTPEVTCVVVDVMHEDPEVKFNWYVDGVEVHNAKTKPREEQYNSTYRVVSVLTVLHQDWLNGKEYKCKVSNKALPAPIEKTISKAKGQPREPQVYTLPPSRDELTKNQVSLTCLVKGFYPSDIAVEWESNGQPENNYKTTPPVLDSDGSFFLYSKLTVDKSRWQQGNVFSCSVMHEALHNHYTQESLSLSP
light: B1 light
notes: homodimerized: alteration in both H chains; also called Ho Ab S267_06M
B21: GpH7-B3 variant S239_18N/GpL16-k0 (antibody, human IgG1, kappa)
heavy: not shown
light: B1 light
notes: homodimerized: alteration in both H chains; also called Ho Ab S239_18N
B22: GpH7-B3 variant S337_07I/GpL16-k0 (antibody, human IgG1, kappa)
heavy: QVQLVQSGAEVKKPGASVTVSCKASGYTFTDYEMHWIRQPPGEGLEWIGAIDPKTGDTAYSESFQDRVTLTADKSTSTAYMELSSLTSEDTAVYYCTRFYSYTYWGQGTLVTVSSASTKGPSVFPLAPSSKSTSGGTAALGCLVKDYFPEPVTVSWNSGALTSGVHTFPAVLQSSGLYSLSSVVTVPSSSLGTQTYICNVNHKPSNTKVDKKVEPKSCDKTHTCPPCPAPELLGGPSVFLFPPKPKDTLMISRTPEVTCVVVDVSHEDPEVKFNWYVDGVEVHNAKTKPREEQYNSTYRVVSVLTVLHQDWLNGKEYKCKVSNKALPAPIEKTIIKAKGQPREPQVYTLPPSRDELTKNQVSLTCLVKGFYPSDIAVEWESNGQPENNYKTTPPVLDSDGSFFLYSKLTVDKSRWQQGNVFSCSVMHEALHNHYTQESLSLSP
light: B1 light
notes: homodimerized: alteration in both H chains; also called Ho Ab S337_07I
B23: GpH7-B3 variant S337_16H/GpL16-k0 (antibody, human IgG1, kappa)
heavy: not shown
light: B1 light
notes: homodimerized: alteration in both H chains; also called Ho Ab S337_16H
B24: GpH7-B3 variant T335_10E/GpL16-k0 (antibody, human IgG1, kappa)
heavy: not shown
light: B1 light
notes: homodimerized: alteration in both H chains; also called Ho Ab T335_10E
B25: GpH7-B3 variant S337_03V/GpL16-k0 (antibody, human IgG1, kappa)
heavy: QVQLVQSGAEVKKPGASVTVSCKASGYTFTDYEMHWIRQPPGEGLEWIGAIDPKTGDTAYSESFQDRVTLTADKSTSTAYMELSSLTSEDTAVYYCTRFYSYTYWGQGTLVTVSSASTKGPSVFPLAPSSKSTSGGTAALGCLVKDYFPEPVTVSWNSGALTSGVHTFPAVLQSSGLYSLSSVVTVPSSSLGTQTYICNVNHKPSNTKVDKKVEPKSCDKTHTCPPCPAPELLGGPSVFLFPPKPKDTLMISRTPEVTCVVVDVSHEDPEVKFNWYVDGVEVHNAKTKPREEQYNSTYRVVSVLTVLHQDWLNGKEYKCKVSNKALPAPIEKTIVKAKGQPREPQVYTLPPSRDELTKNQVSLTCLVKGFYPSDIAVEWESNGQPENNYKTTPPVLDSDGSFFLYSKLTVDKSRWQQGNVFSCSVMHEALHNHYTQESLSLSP
light: B1 light
notes: homodimerized: alteration in both H chains; also called Ho Ab S337_03V

The target of the assay is T1, FcγRIIa R extracellular domain with …. Nature of the assay: SPR (Biacore), relative FcγRIIa R binding, GpH7-B3/GpL16-k0 = 100. The method, then: Analysis of interaction between objective antibody and the FcγR was carried out using Biacore T100 (GE Healthcare). HBS-EP+ (GE Healthcare) was used as the running buffer, and the measurement temperature was set to 25° C. Chips produced by immobilizing the antigen peptide by the amine coupling method to a Series S Sencor Chip CM5 (GE Healthcare), or alternatively, chips produced by allowing preliminarily biotinylated antigen peptides to interact with and immobilize onto a Series S Sensor Chip SA (certified) (GE Healthcare) were used. Antibodies of interest were captured onto an antigen peptide-immobilized chip, and allowed to interact to each FcγR diluted with running buffer. To regenerate and repeatedly use the chip, the antibodies captured on the chip were washed off by reacting 10 mM glycine-HCl, pH 1.5.
(In general: Surface plasmon resonance follows binding to a sensor surface in real time, without labels.)
For the molecule B1, the Ho/Con_2aR was 102 % of control. Turning to B2, the Ho/Con_2aR is 122 % of control.

Consider B3, for which the Ho/Con_2aR was 101 % of control.

As for B4, the Ho/Con_2aR is 103 % of control.

Take B5: the Ho/Con_2aR is 100 % of control. Regarding B6, the Ho/Con_2aR is 114 % of control. With B7, the Ho/Con_2aR was 101 % of control. Turning to B8, the Ho/Con_2aR was 167 % of control. Take B9: the Ho/Con_2aR is 102 % of control.

For B10, the Ho/Con_2aR is 118 % of control. Then B11, with 105 % of control. Turning to B12, the Ho/Con_2aR is 102 % of control. For the molecule B13, the Ho/Con_2aR was 115 % of control. For B14, the Ho/Con_2aR is 110 % of control. Turning to B15, the Ho/Con_2aR is 110 % of control. Then B16, with 107 % of control.

Consider B17, for which the Ho/Con_2aR was 104 % of control. As to B18, the Ho/Con_2aR is 102 % of control. Regarding B19, the Ho/Con_2aR was 106 % of control. With B20, the Ho/Con_2aR was 102 % of control.

In the case of B21, the Ho/Con_2aR is 103 % of control.

On to B22, for which the Ho/Con_2aR was 103 % of control. For B23, the Ho/Con_2aR is 107 % of control. Then B24, with 109 % of control. With B25 the figure was 102 % of control.

For the origin of these results see US20150344570A1 (published 2015).
